What was measured:
[1] = system: FcγRIIIa (F/F low affinity and V/V high affinity alleles); assay: BLI binding affinity to FcγRIIIa (low and high affinity alleles); parameters: species or system human; conditions: compared with SGN-70
Description: Parameters are listed Table 1. Biotinylated avi-tagged human FcγR-monomeric Fc N297A LALA-PG and Fc receptor neonatal (FcRN) monomeric Fc N297A IHH fusion proteins (designed and expressed at Seattle Genetics) were loaded onto high precision streptavidin biosensors (ForteBio) to responses between 0.3 to 1 nm following a 100 second sensor check in Buffer A (0.1% bovine serum albumin [BSA], 0.02% Tween20, 1× phosphate-buffered saline [PBS] pH 7.4). After another baseline measurement, titrated antibodies were associated for 600, 10, 100, 50, and 10 seconds and dissociated for 1000, 50, 100, 500, and 50 seconds in Buffer B (1% casein, 0.2% Tween20, 1×PBS pH 7.4) for FcγRI, IIa, IIIa, FcRN pH 6, and FcRN pH 7.4, respectively. Prior to analysis, the references were subtracted in each assay. All the sensorgrams were processed with a Y-axis alignment at the start of association and an inter-step dissociation correction. A 1:1 Langmuir isotherm global fit model was used to fit the curves.

[2] = system: MOLM-13 CD70+ AML cell line; assay: ADCC assay with NK effector cells, MOLM-13; format: cell-based, human; conditions: effector-to-target ratio 10:1, 4 h
Method: ADCC activity was evaluated using two CD70+AML cell lines as an ADCC target (FIGS. 3A and 3B). The AML cell lines, MOLM-13 (FIG. 3A) and NOMO-1 (FIG. 3B), were labeled and mixed with titrations of test antibodies or isotype control. Effector cells were isolated from cryopreserved normal donor PBMC using the EasySep Human NK Cell Enrichment Kit (Stem Cell Technologies). Effector cells were added at an effector-to-target cell ratio of 10:1 with […]. After a 4-h incubation, the percent specific cell lysis was calculated.
AML cell lines were grown in appropriate growth medium while incubating at 37° C. in 5% CO2. Suspended cells were counted using ViCell XR cell counter. The required volume of cells was mixed with fresh growth medium and plated at seeding densities of 0.5 M/mL.
The following protocol was used to assess ADCC activity: • 1. Two vials of huPBMCs were thawed in the 37° C. waterbath and resuspended in 1% FBS-RPMI media. Cells were spun down and then NK cells were isolated using the EasySep human NK cell enrichment kit following the manufacturer's protocol. • 2. […] Absorbance per well was measured using the SpectraMax 190 plate reader at 490 nm and the acquired values were converted to text file and exported to Excel and into GraphPad Prism for further data analysis. • 9. […]

[3] = system: MOLM-13 CD70+ AML cell line; assay: CDC with normal human serum, MOLM-13; format: cell-based; conditions: normal human serum not heat inactivated
Method: AML cell lines positive for CD70 were fluorescently labeled and treated with increasing concentrations of CD70 directed antibodies. Cells were then exposed to human compliment and lysis determined as release of fluorescent dye.
The following protocol was used to assess CDC activity on AML cell lines: • 1. Cells were incubated with […] anti-CRP monoclonal antibodies mix (anti-hCD46, anti-hCD55, anti-hCD59) for 30 minutes on ice. • 2. Cells were washed and plated (200,000 cells/well) in media containing non-heat-inactivated serum, Sytox Green (Life technology), and antibodies, which were added at the indicated final concentration, for 2 hours at 37° C. • 3. Cell dead was quantified by detecting Sitox Green fluorescent signal on an Envison plate reader (Perkin Elmer) and normalized over positive control (1% Triton X-100 treated cells).

[4] = system: MV4-11 AML xenograft; assay: Tumor growth in the MV4-11 AML xenograft model, SEA-CD70, azacitidine, venetoclax (Example 11); format: in vivo, SCID mice; conditions: antibody 10 mg/kg Q4dx5, azacitidine 2 mg/kg Q1dx5 3 cycles, venetoclax 25 mg/kg oral Q1dx21; comparisons at day 39
Description: Tumor growth was reported as a volume and calculated as an average across animals within each treatment group (FIG. 11A). Immunocompromised SCID mice were implanted with 5×10e6 MV4-11 cells subcutaneously in the flank on day 0. When mean tumor size of 50 mm^3 (measured by using the formula: Volume (mm^3)=0.5*Length*Width^2, where the length is the longer dimension) was reached, mice were randomized into treatment groups of 10 mice per group. Stock concentrations of antibody and chemotherapy were diluted to the appropriate concentration and injected into animals at 10 μl/g of body weight. Tumor length and width, and animal weight were measured two times weekly throughout the study and tumor volume was calculated using the formula above. Animals were followed until tumor volume measured ˜1000 mm^3, at which time the animals were euthanized. Animals were dosed on various schedules based on treatment received; animals receiving antibody were treated with 10 mg/kg of antibody (Q4dx5), azacitidine-treated animals were dosed daily (2 mg/kg) for five consecutive days (Q1dx5) each week, for a total of 3 cycles (3 weeks); venetoclax was given at 25 mg/kg every day by oral gavage for 21 days consecutively (Q1dx21). Animal receiving combination of treatments received each treatment at the same dose and schedule as the single treatments.

B1: SEA-CD70: humanized, nonfucosylated monoclonal IgG1 antibody targeting CD70 (nonfucosylated h1F6) (antibody, chains of the INN, looked up, V domains shown)
VH: QVQLVQSGAEVKKPGASVKVSCKASGYTFTNYGMNWVRQAPGQGLKWMGWINTYTGEPTYADAFKGRVTMTRDTSISTAYMELSRLRSDDTAVYYCARDYGDYGMDYWGQGTTVTVSS
VL: DIVMTQSPDSLAVSLGERATINCRASKSVSTSGYSFMHWYQQKPGQPPKLLIYLASNLESGVPDRFSGSGSGTDFTLTISSLQAEDVAVYYCQHSREVPWTFGQGTKVEIK
modifications: nonfucosylated
binding affinity to FcγRIIIA [1]: much higher binding affinity
lysis of target cells in ADCC assay [2]: induced lysis of two CD70 positive AML cell lines in a dose-dependent fashion
cell lysis by complement fixation [3]: lysed in an antibody-specific, dose-dependent manner
effect on tumor growth [4]: delay tumor growth
